Primed or numbered codes have the meaning given here. Ends that are not written are not given here. PEG10 = NCCOCCOCCOCCOCCOCCOCCOCCOCCOCCOCCC(=O)O; PEG20′ = not defined here; PEG4′ = not defined here
T1: human IL-2Rγc (CD132 protein, Fc Tag) (23-254) (human, UniProt P31785 23-254)
T1 construct: range 23-254; Bought protein; also called hu-IL-2Rγc subunit; IL-2Rγc subunit; not shown: Fc tag of the bought protein
T1 sequence (looked up): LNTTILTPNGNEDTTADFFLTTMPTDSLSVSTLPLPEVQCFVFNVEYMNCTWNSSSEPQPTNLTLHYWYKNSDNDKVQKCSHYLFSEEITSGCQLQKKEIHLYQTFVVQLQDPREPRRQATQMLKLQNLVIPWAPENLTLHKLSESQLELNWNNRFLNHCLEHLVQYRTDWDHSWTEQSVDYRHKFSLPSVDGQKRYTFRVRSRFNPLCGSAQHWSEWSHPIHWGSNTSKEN

T2: hu-IL-2R (human, UniProt P14784 27-551; P31785 23-369)
T2 sequence (looked up) 1: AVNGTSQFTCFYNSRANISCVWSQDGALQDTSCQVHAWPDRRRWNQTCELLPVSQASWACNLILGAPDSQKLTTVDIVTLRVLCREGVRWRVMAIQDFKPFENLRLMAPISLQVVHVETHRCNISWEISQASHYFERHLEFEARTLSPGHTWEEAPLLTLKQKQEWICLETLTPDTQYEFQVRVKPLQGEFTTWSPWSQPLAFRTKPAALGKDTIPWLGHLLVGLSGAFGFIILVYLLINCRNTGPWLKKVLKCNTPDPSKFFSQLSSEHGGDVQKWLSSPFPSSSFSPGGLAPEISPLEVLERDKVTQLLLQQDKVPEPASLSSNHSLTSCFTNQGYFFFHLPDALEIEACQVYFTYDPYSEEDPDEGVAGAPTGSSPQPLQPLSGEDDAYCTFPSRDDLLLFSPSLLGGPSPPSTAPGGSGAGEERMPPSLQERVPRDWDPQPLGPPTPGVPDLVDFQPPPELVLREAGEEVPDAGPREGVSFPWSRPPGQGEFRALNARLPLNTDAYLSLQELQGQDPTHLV
T2 sequence (looked up) 2: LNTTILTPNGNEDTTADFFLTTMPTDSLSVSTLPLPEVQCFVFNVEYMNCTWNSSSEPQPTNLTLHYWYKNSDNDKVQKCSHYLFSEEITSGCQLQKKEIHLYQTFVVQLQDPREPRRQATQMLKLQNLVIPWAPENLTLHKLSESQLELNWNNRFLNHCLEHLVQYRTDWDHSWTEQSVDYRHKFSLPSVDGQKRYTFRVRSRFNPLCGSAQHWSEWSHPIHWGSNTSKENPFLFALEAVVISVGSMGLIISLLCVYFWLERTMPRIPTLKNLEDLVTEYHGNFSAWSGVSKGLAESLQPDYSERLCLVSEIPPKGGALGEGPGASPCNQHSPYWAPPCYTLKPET

T3: human IL-2Rβ (CD122 protein, Fc Tag) (27-239) (human, UniProt P14784 27-239)
T3 construct: range 27-239; Bought protein; also called hu-IL-2Rβ subunit; IL-2Rβ subunit; not shown: Fc tag of the bought protein
T3 sequence (looked up): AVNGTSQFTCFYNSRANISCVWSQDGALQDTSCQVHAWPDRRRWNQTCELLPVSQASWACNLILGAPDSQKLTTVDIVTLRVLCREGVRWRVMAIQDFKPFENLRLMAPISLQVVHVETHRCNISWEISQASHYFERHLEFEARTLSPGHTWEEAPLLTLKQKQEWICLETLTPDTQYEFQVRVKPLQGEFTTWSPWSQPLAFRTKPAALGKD

B1: PEG-IL-2Rβγc ligand construct PEG-3 (peptide)
peptide: {PEG 40 kDa branched}-APAPAPAPAPAPGGWYPCWMAQLGELCDLDGGGGSGGVVCQDWEGVELCWQGG
modifications: cysteine pairing not given here
B2: PEG-IL-2Rβγc ligand construct PEG-1 (peptide)
peptide: {PEG 40 kDa branched-PEG10}-GGWYPCWMAQLGELCDLDGGGGSGGVVCQDWEGVELCWQGG
modifications: not fully specified; printed as -GGWYPCWMAQLGELCDLDGGGGSGGVVCQDWEGVELCWQGG-; cysteine pairing not given here
B3: IL-2Rβγc ligand having SEQ ID NO: 4171 (peptide)
peptide: GGGELLVDCFKVKVGELCDLFFGPAPAPAPAPAPAPAPAGVVCQDWEGVELCWQGG
B4: IL-2Rβγc ligand BGL24 (peptide)
peptide 1: GGRYVHDCFIAQVGDLCDLALHPAPAPAPAPAPAPAPA
peptide 2: VVCQDWEGVELCWQGG
modifications: cysteine pairing not given here; also: two chains joined by non-peptidyl linker L11 (click chemistry)
notes: Made by click chemistry
B5: SEQ ID NO 4170 (peptide)
peptide: GGGELLVDCFKVKVGELCDLFFGGGGGSGGGGSGGGGSGGGGSGGVVCQDWEGVELCWQGG
B6: IL-2Rγc ligand SEQ ID NO: 1032 (peptide)
peptide: SLLKCYNASTCASVF
notes: Used as synthetic peptide and as phage clone; also called family 5
B7: IL-2Rγc ligand SEQ ID NO: 248 (peptide)
peptide: DLSDLSTFWLSQ
notes: Used as synthetic peptide and as phage clone; also called family 3
B8: IL-2Rγc ligand SEQ ID NO: 266 (peptide)
peptide: CPSMLQGPERTWVC
notes: Used as phage clone; also called family 4
B9: IL-2Rγc ligand SEQ ID NO: 224 (peptide)
peptide: DCSMWEGVELCW
notes: Used as synthetic peptide and as phage clone; also called family 1B
B10: IL-2Rγc ligand SEQ ID NO: 198 (peptide)
peptide: KVCEMWGGVLLCWN
notes: Used as phage clone; also called family 1A
B11: IL-2Rγc ligand SEQ ID NO: 236 (peptide)
peptide: MCWLEWGEWVGSCL
notes: Used as synthetic peptide and as phage clone; also called family 2
B12: IL-2Rβ ligand SEQ ID NO: 1044 (peptide)
peptide: RSCYYKRPRLWCSE
notes: Used as synthetic peptide and as phage clone; also called family 4
B13: IL-2Rβ ligand SEQ ID NO: 170 (peptide)
peptide: QICDVGQWWPDCQV
notes: Used as phage clone; also called family 2A
B14: IL-2Rβ ligand SEQ ID NO: 1034 (peptide)
peptide: CGMAIGDLCMWT
notes: Used as phage clone; also called family 2C
B15: IL-2Rβ ligand SEQ ID NO: 58 (peptide)
peptide: YDCRIAQVGELCDL
notes: Used as synthetic peptide and as phage clone; also called family 1

Target: T1, human IL-2Rγc (CD132 protein, Fc Tag) …
Experiment: IL-2Rγc IC50, assay not named in Example 29

Binder | IC50
{PEG 40 kDa branched-PEG20′}-GGWYPCWMAQLGELCDLDGGGGSGGVVCQDWEGVELCWQGG (cysteine pairing not given here; reading uncertain) [PEG-IL-2Rβγc ligand construct PEG-7] | 1.7 nM
{PEG 40 kDa linear-PEG20′}-GGWYPCWMAQLGELCDLDGGGGSGGVVCQDWEGVELCWQGG (cysteine pairing not given here; reading uncertain) [PEG-IL-2Rβγc ligand construct PEG-6] | 3.4 nM
GGWYPCWMAQLGELCDLDGGGGSGGVVCQDWEGVELCWQGG-{PEG4′-PEG 40 kDa branched} (cysteine pairing not given here) [PEG-IL-2Rβγc ligand construct PEG-2] | 690 nM
B1 | 4.3 nM
GGWYPCWMAQLGELCDLDGGGGSGGVVCQDWEGVELCWQGG-{PEG10-PEG 40 kDa branched} (cysteine pairing not given here) [PEG-IL-2Rβγc ligand construct PEG-4] | 3.7 nM
B2 | 26 nM
{PEG 20 kDa linear-PEG20′}-GGWYPCWMAQLGELCDLDGGGGSGGVVCQDWEGVELCWQGG (cysteine pairing not given here; reading uncertain) [PEG-IL-2Rβγc ligand construct PEG-5] | 4.1 nM

Target: T2, hu-IL-2R
Experiment: cell-based or functional assay

Binder | EC50 (STAT5, NK92)
{PEG 40 kDa branched-PEG20′}-GGWYPCWMAQLGELCDLDGGGGSGGVVCQDWEGVELCWQGG (cysteine pairing not given here; reading uncertain) [PEG-IL-2Rβγc ligand construct PEG-7] | 8.3 nM
{PEG 40 kDa linear-PEG20′}-GGWYPCWMAQLGELCDLDGGGGSGGVVCQDWEGVELCWQGG (cysteine pairing not given here; reading uncertain) [PEG-IL-2Rβγc ligand construct PEG-6] | 1.6 nM
GGWYPCWMAQLGELCDLDGGGGSGGVVCQDWEGVELCWQGG-{PEG4′-PEG 40 kDa branched} (cysteine pairing not given here) [PEG-IL-2Rβγc ligand construct PEG-2] | 273 nM
B1 | 2.3 nM
GGWYPCWMAQLGELCDLDGGGGSGGVVCQDWEGVELCWQGG-{PEG10-PEG 40 kDa branched} (cysteine pairing not given here) [PEG-IL-2Rβγc ligand construct PEG-4] | 24 nM
B2 | 5.8 nM
{PEG 20 kDa linear-PEG20′}-GGWYPCWMAQLGELCDLDGGGGSGGVVCQDWEGVELCWQGG (cysteine pairing not given here; reading uncertain) [PEG-IL-2Rβγc ligand construct PEG-5] | 1 nM

Target: T1, human IL-2Rγc (CD132 protein, Fc Tag) …
Experiment: competition ELISA, peptide tracer
Protocol: (§1) Binding of Fc fusions to IL-2Rβ and IL-2Rγc were measured using a competition binding ELISA with biotinylated peptide/NeutrAvidin-HRP tracer. ELISA plate was prepared as described in Example 27.
(§2) The plate was washed 4 times with PT (1×PBS, 0.05% Tween® 20) buffer. Fifty (50) μL of IL-2R ligands serially diluted in PBT was added to appropriate wells then incubated at 4° C. for 1 hr.
(§3) At the appropriate time, the precomplexed bn-peptide/NA-HRP tracer was diluted to 2-fold its predetermined binding EC80 (typically 30 to 10 nM) without washing. fifty (50) μL of bn-peptide/NA-HRP tracer was added to each well and incubated at 4° C. for 45 mins.

Binder | IC50
B3 | < 100 µM
B4 | < 100 µM
B5 | < 100 µM

Target: T4, cynomolgus monkey Rγc subunit (cynomolgus monkey)
T4 construct: also called cyno-IL-2Rγc subunit
Experiment: competition ELISA, peptide tracer
Protocol: as §1, §2, §3

Binder | IC50
B3 | < 100 µM
B4 | < 100 µM
B5 | < 100 µM

Target: T3, human IL-2Rβ (CD122 protein, Fc Tag) …
Experiment: competition ELISA, peptide tracer
Protocol: as §1, §2, §3

Binder | IC50
B3 | < 100 µM
B4 | < 100 µM
B5 | < 100 µM

Target: T5, cynomolgus monkey IL-2Rβ subunit (cynomolgus monkey)
T5 construct: Bought protein; also called cyno-IL-2Rβ subunit
Experiment: competition ELISA, peptide tracer
Protocol: as §1, §2, §3

T5 sequence (Q38J85 whole entry): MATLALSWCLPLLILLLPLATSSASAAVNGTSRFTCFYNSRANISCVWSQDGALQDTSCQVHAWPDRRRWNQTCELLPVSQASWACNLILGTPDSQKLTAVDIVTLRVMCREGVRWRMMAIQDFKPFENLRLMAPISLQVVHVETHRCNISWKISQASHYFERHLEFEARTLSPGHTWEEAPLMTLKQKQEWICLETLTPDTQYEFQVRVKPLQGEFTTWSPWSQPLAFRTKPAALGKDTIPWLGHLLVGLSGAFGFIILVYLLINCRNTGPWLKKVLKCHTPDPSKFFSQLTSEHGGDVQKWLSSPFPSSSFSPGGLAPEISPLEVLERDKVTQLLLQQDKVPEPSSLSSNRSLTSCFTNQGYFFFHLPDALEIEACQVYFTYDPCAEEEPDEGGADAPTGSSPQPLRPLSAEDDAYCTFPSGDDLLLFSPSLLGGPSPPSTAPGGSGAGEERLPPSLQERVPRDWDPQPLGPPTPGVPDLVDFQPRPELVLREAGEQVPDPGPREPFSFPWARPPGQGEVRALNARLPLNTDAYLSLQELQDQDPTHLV

Binder | IC50
B3 | < 100 µM
B4 | < 100 µM
B5 | < 100 µM

Target: T1, human IL-2Rγc (CD132 protein, Fc Tag) …
Experiment: competitive binding ELISA (Example 28)
Protocol: (§4) In this example, IL-2R ligands were diluted to 2-times final assay concentration in PBT (1×PBS pH 7.2, 0.5% Bovine Serum Albumin, 0.05% Tween®20) and serially diluted. Fifty (50) μL was added to the appropriate wells. The plates were then incubated at 4° C. for 1 hr.
(§5) Without washing, fifty (50) μL of representative phage were added to the assay wells (phage tracer). The plates were then incubated at 4° C. for 45 min.

Binder | IC50
B6 | < 10 µM
B7 | < 10 µM
RTCTEWENVVLCWV (also called family 1A) [IL-2Rγc ligand SEQ ID NO: 202] | < 10 µM
B8 | < 10 µM
B9 | < 10 µM
B10 | < 10 µM
B11 | < 10 µM

Target: T3, human IL-2Rβ (CD122 protein, Fc Tag) …
Experiment: competitive binding ELISA (Example 28)
Protocol: as §4, §5

Binder | IC50
B12 | < 10 µM
RWGDVGDLLMPL (also called family 2C) [IL-2Rβ ligand SEQ ID NO: 1042] | < 10 µM
B13 | < 10 µM
B14 | < 10 µM
NMCLVGDYWPSCQI (also called family 2A) [IL-2Rβ ligand SEQ ID NO: 169] | < 10 µM
B15 | < 10 µM

Target: T3, human IL-2Rβ (CD122 protein, Fc Tag) …
Experiment: IL-2Rβ IC50, assay not named in Example 29

Binder | IC50
{PEG 40 kDa branched-PEG20′}-GGWYPCWMAQLGELCDLDGGGGSGGVVCQDWEGVELCWQGG (cysteine pairing not given here; reading uncertain) [PEG-IL-2Rβγc ligand construct PEG-7] | 3.4 nM
{PEG 40 kDa linear-PEG20′}-GGWYPCWMAQLGELCDLDGGGGSGGVVCQDWEGVELCWQGG (cysteine pairing not given here; reading uncertain) [PEG-IL-2Rβγc ligand construct PEG-6] | 17 nM
GGWYPCWMAQLGELCDLDGGGGSGGVVCQDWEGVELCWQGG-{PEG4′-PEG 40 kDa branched} (cysteine pairing not given here) [PEG-IL-2Rβγc ligand construct PEG-2] | 8 nM
B1 | 14 nM
GGWYPCWMAQLGELCDLDGGGGSGGVVCQDWEGVELCWQGG-{PEG10-PEG 40 kDa branched} (cysteine pairing not given here) [PEG-IL-2Rβγc ligand construct PEG-4] | 8.5 nM
B2 | 31 nM
{PEG 20 kDa linear-PEG20′}-GGWYPCWMAQLGELCDLDGGGGSGGVVCQDWEGVELCWQGG (cysteine pairing not given here; reading uncertain) [PEG-IL-2Rβγc ligand construct PEG-5] | 33 nM
